The text below walks through data of PMC11077774 (2024).

Sequences and labels used below:
B1: BicD2-CTD (C-terminal cargo-binding domain of human Bicaudal D2, residues 715-804) [human] / full-length GTP-bound Rab6a/Q72L with N-terminal GST tag [human] (parent complex)
chain 1: YENEKAMVTETMMKLRNELKALKEDAATFSSLRAMFATRCDEYITQLDEMQRQLAAAEDEKKTLNSLLRMAIQQKLALTQRLELLELDHE
chain 2: MSTGGDFGNPLRKFKLVFLGEQSVGKTSLITRFMYDSFDNTYQATIGIDFLSKTMYLEDRTVRLQLWDTAGLERFRSLIPSYIRDSTVAVVVYDITNVNSFQQTTKWIDDVRTERGSDVIIMLVGNKTDLADKRQVSIEEGERKAKELNVMFIETSAKAGYNVKQLFRRVAAALPGMESTQDRSREDMIDIKLEKPQEQPVSEGGCSC

Variants of B1 are the subject of this assay. The experiment in a line: GST pull-down, SDS-PAGE band quantification; parent: 1; read off a plot.
Turning to chain 2 Y35A, the ratio to parent was around 0.4.
Under chain 2 P80A stands around 0.75; under chain 2 R74A, around 0.95.
The figure for chain 2 L78A is around 0.57; for chain 2 S77A it is around 0.86; for chain 2 S81A it is around 1.
Under chain 2 F50A stands around 0.37; under chain 2 T54A, around 0.79; under chain 2 L51A, around 1.1.
On to chain 2 Y42A, for which the ratio to parent was around 0.38.
The figure for chain 2 K53A is around 0.01; for chain 2 I83A it is around 0.02; for chain 2 S52A it is around 1.
The figure for chain 2 D49A is around 0.04; for chain 2 I46A it is around 0.07.
Under chain 2 Y82A stands around 0.16.
With chain 2 F75A, the ratio to parent is around 0.02.
Under chain 2 I79A stands around 0.1.
The figure for chain 2 Q65A is around 0.48; for chain 2 R84A it is around 1.
For the variant chain 2 R63A, the ratio to parent was around 0.07.
The figure for chain 2 I48A is around 1.3; for chain 2 D85A it is around 0.99; for chain 2 Q43A it is around 1.
